Laboratory results reported in the RNAGym collection of RNA variant scans (doi:10.1021/acssynbio.7b00057).

B1: Pistol ribozyme (parent)
chain: GGGUCGUUGUUCCAUAAUCGCGUGGAUAUGGCACGCAAGUUUCUACCGGGCACCGUAAAUGUCCGACUGGAGCCGUUCGGGCGGCUAUAAACAGACCUCAGGCCCGAAGCGUGGCGGCACCUGCCGCCGGUGGUAAAAAAGAUCGGAAGAGCACACGUCU

Variants of: B1
Test: aptazyme ON/OFF ratio, guanine; higher = stronger switching; co-transcriptional cleavage with and without guanine

Q: Which “aptazyme ON/OFF ratio” value does the source give for U8G G9C U10A U11C C13G here?
A: Its value is 1.04.

Q: Which “aptazyme ON/OFF ratio” value does the source give for U8G G9C U10A U11C C13A here?
A: Its value is 1.04.

Q: Which “aptazyme ON/OFF ratio” value does the source give for U8G G9C U10A U11C C13U here?
A: The value was 1.03.

Q: With U8G G9C U10G U11A C12U C13U as the variant, how does the “aptazyme ON/OFF ratio” value read?
A: Its value is 1.12.

Q: For U8G G9C U10G U11A C12U C13G, which “aptazyme ON/OFF ratio” value is on record?
A: The value was 1.15.

Q: For U8G G9C U10G U11A C12U C13A, which “aptazyme ON/OFF ratio” value is on record?
A: Its value is 1.16.

Q: Which “aptazyme ON/OFF ratio” value does the source give for U8G G9C U10C U11C C12A here?
A: Its value is 1.05.

Q: Which “aptazyme ON/OFF ratio” value does the source give for U8G G9C U10C U11C C12U here?
A: The value was 1.06.

Q: Which “aptazyme ON/OFF ratio” value does the source give for U8G G9C U10C U11C C12G here?
A: The value was 1.06.

Q: With U8G G9C U10A C12A C13A as the variant, how does the “aptazyme ON/OFF ratio” value read?
A: Its value is 1.13.

Q: With U8G G9C U10A C12A C13G as the variant, how does the “aptazyme ON/OFF ratio” value read?
A: Its value is 1.12.

Q: With U8G G9C U10A C12A C13U as the variant, how does the “aptazyme ON/OFF ratio” value read?
A: Its value is 1.17.

Q: With U8G G9A U10C U11G C12U C13G as the variant, how does the “aptazyme ON/OFF ratio” value read?
A: The value was 1.18.

Q: With U8G G9A U10C U11G C12U C13A as the variant, how does the “aptazyme ON/OFF ratio” value read?
A: Its value is 1.34.

Q: With U8G G9A U10C U11G C12U C13U as the variant, how does the “aptazyme ON/OFF ratio” value read?
A: Its value is 1.21.

Q: For U8G G9C U10A C13A, which “aptazyme ON/OFF ratio” value is on record?
A: Its value is 1.07.

Q: With U8G G9C U10A C13U as the variant, how does the “aptazyme ON/OFF ratio” value read?
A: Its value is 1.09.

Q: For U8G G9C U10A C13G, which “aptazyme ON/OFF ratio” value is on record?
A: Its value is 1.06.

Q: Which “aptazyme ON/OFF ratio” value does the source give for U8G G9C here?
A: The value was 1.09.

Q: For U8G G9A U10G U11C C12U C13U, which “aptazyme ON/OFF ratio” value is on record?
A: Its value is 1.06.

Q: With U8G G9A U10G U11C C12U C13A as the variant, how does the “aptazyme ON/OFF ratio” value read?
A: The value was 1.06.

Q: For U8G G9A U10G U11C C12U C13G, which “aptazyme ON/OFF ratio” value is on record?
A: Its value is 1.2.

Q: Which “aptazyme ON/OFF ratio” value does the source give for U8G G9C U10A C12U C13U here?
A: The value was 1.07.

Q: Which “aptazyme ON/OFF ratio” value does the source give for U8G G9C U10A C12U C13G here?
A: Its value is 1.1.

Q: Which “aptazyme ON/OFF ratio” value does the source give for U8G G9C U10A C12U C13A here?
A: Its value is 1.15.

Q: With U8G G9A U11A C12G C13G as the variant, how does the “aptazyme ON/OFF ratio” value read?
A: The value was 1.17.

Q: With U8G G9A U11A C12G C13A as the variant, how does the “aptazyme ON/OFF ratio” value read?
A: Its value is 1.08.

Q: Which “aptazyme ON/OFF ratio” value does the source give for U8G G9A U11A C12G C13U here?
A: The value was 1.26.

Q: For U8G G9A U11G, which “aptazyme ON/OFF ratio” value is on record?
A: Its value is 1.18.

Q: Which “aptazyme ON/OFF ratio” value does the source give for U8G G9A U11C here?
A: The value was 1.05.

Q: Which “aptazyme ON/OFF ratio” value does the source give for U8G G9A U11A here?
A: The value was 1.59.

Q: Which “aptazyme ON/OFF ratio” value does the source give for U8G G9A U10G U11C C12G C13U here?
A: The value was 1.4.

Q: Which “aptazyme ON/OFF ratio” value does the source give for U8G G9A U10G U11C C12G C13G here?
A: The value was 1.25.

Q: For U8G G9A U10G U11C C12G C13A, which “aptazyme ON/OFF ratio” value is on record?
A: Its value is 1.27.

Q: Which “aptazyme ON/OFF ratio” value does the source give for U8G G9A U11C C12U C13G here?
A: Its value is 1.27.

Q: For U8G G9A U11C C12U C13A, which “aptazyme ON/OFF ratio” value is on record?
A: The value was 1.25.

Q: Which “aptazyme ON/OFF ratio” value does the source give for U8G G9A U11C C12U C13U here?
A: Its value is 1.13.

Q: For U8G G9A U10G U11A, which “aptazyme ON/OFF ratio” value is on record?
A: The value was 1.05.

Q: Which “aptazyme ON/OFF ratio” value does the source give for U8G G9A U10G U11G here?
A: Its value is 1.59.

Q: For U8G G9A U10G U11C, which “aptazyme ON/OFF ratio” value is on record?
A: Its value is 1.05.

Q: With U8G G9A U11C C12G C13A as the variant, how does the “aptazyme ON/OFF ratio” value read?
A: The value was 1.17.

Q: Which “aptazyme ON/OFF ratio” value does the source give for U8G G9A U11C C12G C13G here?
A: Its value is 1.18.

Q: With U8G G9A U11C C12G C13U as the variant, how does the “aptazyme ON/OFF ratio” value read?
A: The value was 1.4.

Q: Which “aptazyme ON/OFF ratio” value does the source give for U8G G9C U10G U11G here?
A: Its value is 1.2.

Q: For U8G G9C U10G U11A, which “aptazyme ON/OFF ratio” value is on record?
A: The value was 1.07.

Q: Which “aptazyme ON/OFF ratio” value does the source give for U8G G9C U10G U11C here?
A: The value was 1.03.

Q: For U8G G9A U11A C12A C13G, which “aptazyme ON/OFF ratio” value is on record?
A: The value was 1.25.

Q: Which “aptazyme ON/OFF ratio” value does the source give for U8G G9A U11A C12A C13A here?
A: The value was 1.19.

Q: For U8G G9A U11A C12A C13U, which “aptazyme ON/OFF ratio” value is on record?
A: Its value is 1.15.

Q: Which “aptazyme ON/OFF ratio” value does the source give for U8G G9C U10A U11C C12A C13A here?
A: The value was 1.06.

Q: For U8G G9C U10A U11C C12A C13G, which “aptazyme ON/OFF ratio” value is on record?
A: The value was 1.07.

Q: For U8G G9C U10A U11C C12A C13U, which “aptazyme ON/OFF ratio” value is on record?
A: The value was 1.07.

Q: Which “aptazyme ON/OFF ratio” value does the source give for U8G G9C U10A U11G C12A here?
A: Its value is 1.07.

Q: Which “aptazyme ON/OFF ratio” value does the source give for U8G G9C U10A U11G C12G here?
A: The value was 1.19.

Q: For U8G G9C U10A U11G C12U, which “aptazyme ON/OFF ratio” value is on record?
A: The value was 1.2.

Q: Which “aptazyme ON/OFF ratio” value does the source give for U8G G9A U10G U11C C12U here?
A: The value was 1.02.

Q: For U8G G9A U10G U11C C12G, which “aptazyme ON/OFF ratio” value is on record?
A: The value was 1.19.

Q: For U8G G9A U10G U11C C12A, which “aptazyme ON/OFF ratio” value is on record?
A: The value was 1.19.

Q: Which “aptazyme ON/OFF ratio” value does the source give for U8G G9A U10G U11C C12A C13G here?
A: Its value is 1.16.

Q: Which “aptazyme ON/OFF ratio” value does the source give for U8G G9A U10G U11C C12A C13A here?
A: Its value is 1.18.

Q: For U8G G9A U10G U11C C12A C13U, which “aptazyme ON/OFF ratio” value is on record?
A: Its value is 1.18.

Q: For U8G G9C C13A, which “aptazyme ON/OFF ratio” value is on record?
A: The value was 1.04.

Q: Which “aptazyme ON/OFF ratio” value does the source give for U8G G9C C13G here?
A: The value was 1.03.

Q: Which “aptazyme ON/OFF ratio” value does the source give for U8G G9C C13U here?
A: The value was 1.04.

Q: Which “aptazyme ON/OFF ratio” value does the source give for U8G G9C U10G here?
A: Its value is 1.19.

Q: Which “aptazyme ON/OFF ratio” value does the source give for U8G G9C U10C here?
A: The value was 1.08.

Q: For U8G G9C U10A, which “aptazyme ON/OFF ratio” value is on record?
A: Its value is 1.13.

Q: For U8G G9C U10G C12G C13A, which “aptazyme ON/OFF ratio” value is on record?
A: Its value is 1.08.

Q: With U8G G9C U10G C12G C13G as the variant, how does the “aptazyme ON/OFF ratio” value read?
A: Its value is 1.08.

Q: Which “aptazyme ON/OFF ratio” value does the source give for U8G G9C U10G C12G C13U here?
A: The value was 1.17.

Q: Which “aptazyme ON/OFF ratio” value does the source give for U8G G9C U10A U11A C12U C13A here?
A: The value was 1.14.

Q: For U8G G9C U10A U11A C12U C13U, which “aptazyme ON/OFF ratio” value is on record?
A: The value was 1.19.

Q: For U8G G9C U10A U11A C12U C13G, which “aptazyme ON/OFF ratio” value is on record?
A: The value was 1.1.

Q: Which “aptazyme ON/OFF ratio” value does the source give for U8G G9C U10A U11A C12G C13A here?
A: The value was 1.11.

Q: For U8G G9C U10A U11A C12G C13U, which “aptazyme ON/OFF ratio” value is on record?
A: Its value is 1.18.

Q: Which “aptazyme ON/OFF ratio” value does the source give for U8G G9C U10A U11A C12G C13G here?
A: The value was 1.18.

Q: With U8G G9A U11C C13A as the variant, how does the “aptazyme ON/OFF ratio” value read?
A: The value was 1.07.

Q: With U8G G9A U11C C13U as the variant, how does the “aptazyme ON/OFF ratio” value read?
A: The value was 1.06.

Q: For U8G G9A U11C C13G, which “aptazyme ON/OFF ratio” value is on record?
A: Its value is 1.01.

Q: For U8G G9A U11A C12A, which “aptazyme ON/OFF ratio” value is on record?
A: Its value is 1.33.

Q: Which “aptazyme ON/OFF ratio” value does the source give for U8G G9A U11A C12U here?
A: Its value is 1.43.

Q: With U8G G9A U11A C12G as the variant, how does the “aptazyme ON/OFF ratio” value read?
A: Its value is 1.17.

Q: For U8G G9C U10C U11C C12A C13G, which “aptazyme ON/OFF ratio” value is on record?
A: The value was 1.06.
